First the molecules themselves.
B1: CPEB3 Ribozyme (parent)
chain: UAACAGGGGGCCACAGCAGAAGCGUUCACGUCGCAGCCCCUGUCAGAUUCUGGUGAAUCUGCGAAUUCUGCUGUAUAUCUC

The variants in this data set derive from B1. The data set is described as follows: self-cleavage, relative activity (ratio to wild type); higher = more cleavage; in vitro, sequencing. The essentials: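 Barcoded CPEB3 ribozyme mutants, produced by rounds of error-prone PCR, self-cleaved while being transcribed with T7 RNA polymerase for 5 hours at 37°C and during a subsequent 15 min DNase I step before EDTA was added. Sequencing of template-switched cDNA on Illumina gave cleaved and total reads, and DNA sequencing assigned barcodes to variants. Each variant's relative activity is its cleaved/total read fraction divided by the unmutated ribozyme's fraction, averaged across three batches. A variant needed a minimum of 5 reads.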
As to U1C A75U, the self-cleavage worked out at 1.05.
The figure for U1C A75G is 0.79; for U1A U60C it is 0.35; for U1A U60A it is 0.56.
The figure for U1A U54G is 0.76; for U1A U54A it is 1.14; for U1A U54C it is 1.08.
To U1A G61C belongs 0.29.
For U1A A57G, the self-cleavage stood at 0.77.
To U1A G6A belongs 0.27.
As to U1A U51A, the self-cleavage was 0.95.
The figure for U1A U51C is 0.92; for U1A C81U it is 1.11.
The figure for U1A C12A is 1.14; for U1A C12U it is 1.2; for U1A C12G it is 0.43.
The figure for U1A C23U is 0.22; for U1A C23G it is 0.1; for U1A A35G it is 1.25.
U1A A35U: the self-cleavage was found to be 0.49.
To U1A G9C belongs 0.1; to U1A G9A, 0.28.
The figure for U1A C11G is 0.49; for U1A C11U it is 0.46; for U1C A65U it is 0.31.
The figure for U1C A65G is 0.42; for U1A A75U it is 1.14; for U1A A75G it is 0.9.
Take U1A U58A: the self-cleavage worked out at 0.29.
The figure for U1A U58C is 0.66; for U1A U25C it is 0.41.
As for U1A U25A, the self-cleavage turned out to be 0.34.
The figure for U1C A2G is 0.8; for U1C A2U it is 1.04; for U1C A2C it is 0.94.
As to U1A C37G, the self-cleavage came out at 1.04.
Turning to U1A C37A, the self-cleavage was found to be 0.31.
Regarding U1A A21G, the self-cleavage worked out at 0.55.
The figure for U1A A21U is 0.27.
The figure for U1A A21C is 0.28; for U1C C14U it is 1.07.
Turning to U1C A77U, the self-cleavage was 0.97.
The figure for U1C A77G is 0.91; for U1A U48C it is 0.63; for U1A U67C it is 0.18.
To U1C A18C belongs 1.09.
The figure for U1C A18U is 0.36; for U1C A18G it is 0.48; for U1A A45G it is 0.75.
Turning to U1A A45U, the self-cleavage turned out to be 0.41.
To U1A U66C belongs 0.4; to U1A U66A, 0.42; to U1A U76C, 1.04.
To U1A G24A belongs 0.25; to U1C A47G, 0.9; to U1C A47U, 0.47.
With U1A C29U, the self-cleavage is 0.52.
As for U1A C59U, the self-cleavage was determined as 0.46.
To U1A G30A belongs 0.11; to U1A A5U, 0.97.
The figure for U1A A5G is 0.68; for U1A U80C it is 1.14.
To U1C A45C belongs 0.16; to U1C A45U, 0.39.
U1C A45G: the self-cleavage stood at 0.81.
To U1A U41G belongs 0.27.
On to U1A U41C, for which the self-cleavage is 0.89.
The figure for U1A U41A is 0.2.
Consider U1A U43G, for which the self-cleavage is 0.54.
The figure for U1A U43A is 1.08; for U1A U43C it is 0.58.
For U1C A5U, the self-cleavage stood at 1.02.
To U1C A5G belongs 0.68.
The figure for U1C A5C is 0.82; for U1A U78C it is 0.91; for U1A U78A it is 0.99.
On to U1C A28G, for which the self-cleavage was determined as 0.55.
On to U1C A28U, for which the self-cleavage is 0.67.
U1A C14A: the self-cleavage came to 1.17.
With U1A C32G, the self-cleavage was 0.09.
Turning to U1A C32U, the self-cleavage came out at 0.3.
The figure for U1A G8A is 0.19; for U1A A15G it is 0.72; for U1A A15U it is 0.69.
To U1A G22A belongs 0.23; to U1A G7U, 0.3; to U1A G7A, 0.1.
To U1A U26C belongs 0.47; to U1A U26A, 1.02.
With U1A C50A, the self-cleavage stood at 0.47.
The figure for U1A C38U is 0.97.
As for U1A C38G, the self-cleavage stood at 0.45.
Regarding U1A C38A, the self-cleavage is 0.35.
As to U1C A20U, the self-cleavage stood at 0.29.
Regarding U1C A20G, the self-cleavage amounted to 0.59.
Consider U1A A18C, for which the self-cleavage turned out to be 0.53.
The figure for U1A A18U is 0.41; for U1A A18G it is 0.57.
The figure for U1A A77U is 1.05; for U1A A77G it is 1.12.
To U1A U49C belongs 0.52; to U1A U49A, 0.58; to U1A U69C, 0.61.
Take U1A U69A: the self-cleavage was 0.54.
To U1C C12U belongs 1.22; to U1C A21C, 0.35.
Take U1C A21G: the self-cleavage is 0.24.
The figure for U1C A21U is 0.3; for U1C A57G it is 0.85; for U1A G46A it is 0.43.
To U1C A15G belongs 0.6.
The figure for U1C A15C is 0.62; for U1C A15U it is 0.55; for U1A it is 0.98.
Turning to U1C, the self-cleavage came out at 0.84.
As to U1A U31A, the self-cleavage worked out at 0.64.
To U1A U31C belongs 0.65; to U1A A3G, 1.1; to U1A A3U, 1.2.
Take U1A A3C: the self-cleavage is 1.09.
The figure for U1A U72A is 0.55; for U1A U72C it is 1.02; for U1A U72G it is 0.75.
The figure for U1C A13U is 1.13; for U1C A13G it is 0.79.
To U1A C27A belongs 0.22; to U1A C68U, 0.82.
Take U1A C68A: the self-cleavage was found to be 0.41.
The figure for U1A A28U is 0.88; for U1A G36C it is 0.09.
Consider U1A G36A, for which the self-cleavage came to 0.29.
To U1A U74C belongs 1.18; to U1A U74A, 1.25; to U1A G10C, 0.36.
To U1A G10A belongs 0.25; to U1A A20G, 0.72; to U1A A20U, 0.32.
In the case of U1C A56U, the self-cleavage was 0.52.
The figure for U1C A56G is 0.73; for U1C C23A it is 0.22; for U1A A56G it is 0.71.
The figure for U1A A56U is 0.61; for U1C C11G it is 0.43.
The figure for U1C C11U is 0.36; for U1A A65C it is 0.12.
Regarding U1A A65G, the self-cleavage is 0.48.
To U1A A13G belongs 0.8; to U1A A13U, 1.16; to U1A A64U, 0.28.
The figure for U1A A64G is 0.84; for U1C A64U it is 0.26.
The figure for U1C A64G is 0.8; for U1A A2G it is 0.87; for U1A A2U it is 1.09.
As to U1A G52A, the self-cleavage was found to be 1.1.
To U1A G16A belongs 0.38; to U1A G63A, 0.89; to U1C A3U, 0.83.
To U1C A3G belongs 0.9; to U1C A35C, 0.71.
To U1C A35G belongs 1.24; to U1C A35U, 0.33; to U1A G73A, 1.21.
As for U1A G73U, the self-cleavage stood at 1.44.
U1A A47U: the self-cleavage was 0.78.
As for U1A A47G, the self-cleavage was 1.01.
On to U1A G33A, for which the self-cleavage stood at 0.28.

The values above are taken from the RNAGym collection of RNA variant scans (doi:10.1093/nar/gkz1192).
